# Measured values: the DeepSol protein solubility set
# Test: soluble on expression in E. coli; label from the status in PepcDB or PDB records
row,Sequence,soluble on expression in E. coli
1,MSPQESRRLSIQRCIQSLVHACQCRNANCSLPSCQKMKRVVQHTKGCKRKTNGGCPVCKQLIALCCYHAKHCQENKCPVPFCLNIKHK,soluble
2,MSPSQDPSLENYRAIADGIATLFFPHAEVVLHDLRSQRVDYIANNLSKREVGDDSALEDMLEGDSDERNIGPYEKLNWDGQKIRSVSTVLRDSAGQPLAVLCINLNISLFESAKAALDLFLSPSKLIPQPDALFRDDWQERINTFLHGWLRQRQLGLNLLTREHKRELVLALHAEGAFKGKSAANYVANVLNMGRATVYKHLKELKEGGD,not soluble
3,MSPTLSILIPVYKRDCRRLLEELYKQAEELSVGYEIILGDDCSGEPYTSQYIAYEQEGLCRLVSAEENMGAGRLRNRLAEEAQGEQLLILDSDTLPASPDFIERYLRHASGTTVVCGGFVYPPKSTNPLRQRYGAEVESRSAEERARKPHSGFISMAFMIPRKQMLATGFPPNMGMGYEDILFGERLRQAGIPILHIDNPVEHYHCDTAEGFLATTRSYLDNLYCHREELAELVSLLRAYNLLKRLHLMRMVAALWPLIRSSLEKQLTGAKPSLLLFSLYKLLYVASLSLVCAEKS,not soluble
4,MSPTTDRIAVVGGSISGLTAALMLRDAGVDVDVYERSPQPLSGFGTGIVVQPELVHYLLEQGVELDSISVPSSSMEYVDALTGERVGSVPADWRFTSYDSIYGGLYELFGPERYHTSKCLVGLSQDSETVQMRFSDGTKAEANWVIGADGGASVVRKRLLGIEPTYAGYVTWRGVLQPGEVADDVWNYFNDKFTYGLLDDGHLIAYPIPGRENAESPRLNFQWYWNVAEGPDLDELMTDVRGIRLPTSVHNNSLNPHNLRQFHSKGESLFKPFRDLVLNASSPFVTVVADATVDRMVHGRVLLIGDAAVTPRPHAAAGGAKASDDARTLAEVFTKNHDLRGSLQSWETRQLQQGHAYLNKVKKMASRLQHGGSFEPGNPAFAFGLPKVDEPSVVTNS,soluble
5,MSQEQVEMIYAKTIEQILEMTGNATANFLPVLGVKSIEMAIGQMEEYLEMLKNLRVDYEKEPNLQSCMSPRLNDSMLIHRNRLARTSKSRLALYRTSPEIARFSRGSPDDIENENLSMSKIRSITEETSILDPTLCMDETTHQRGFLADVSDMNGTVRSRMPSFNFNHISPVPAEKTRRHSVLNVTTDFDVDLSSLCEPSQIEENSGQILFQNVLESALRTPNANNNTILLTDSEVTPVNISNLWNVKLRPGSNRKIDNGIRKEIQRQLACDSQL,not soluble
6,MSQIEFKNVSKVYPNGHVGLKNINLNIEKGEFAVIVGLSGAGKSTLLRSVNRLHDITSGEIFIQGKSITKAHGKALLEMRRNIGMIFQHFNLVKRSSVLRNVLSGRVGYHPTWKMVLGLFPKEDKIKAMDALERVNILDKYNQRSDELSGGQQQRISIARALCQESEIILADEPVASLDPLTTKQVMDDLRKINQELGITILINLHFVDLAKEYGTRIIGLRDGEVVYDGPASEATDDVFSEIYGRTIKEDEKLGVN,not soluble
7,MSQQPGVLPENMKRYMGRDAQRMNILAGRIIAETVRSTLGPKGMDKMLVDDLGDVVVTNDGVTILREMSVEHPAAKMLIEVAKTQEKEVGDGTTTAVVVAGELLRKAEELLDQNVHPTIVVKGYQAAAQKAQELLKTIACEVGAQDKEILTKIAMTSITGKGAEKAKEKLAEIIVEAVSAVVDDEGKVDKDLIKIEKKSGASIDDTELIKGVLVDKERVSAQMPKKVTDAKIALLNCAIEETASEMLKDMVAEIKASGANVLFCQKGIDDLAQHYLAKEGIVAARRVKKSDMEKLAKATGANVITNIKDLSAQDLGDAGLVEERKISGDSMIFVEECKHPKAVTMLIRGTTEHVIEEVARAVDDAVGVVGCTIEDGRIVSGGGSTEVELSMKLREYAEGISGREQLAVRAFADALEVIPRTLAENAGLDAIEILVKVRAAHASNGNKCAGLNVFTGAVEDMCENGVVEPLRVKTQAIQSAAESTEMLLRIDDVIAAEKLRGAPDMGDMGGMPGMGGMPGMM,soluble
8,MSQVSTEFIPTRIAILTVSNRRGEEDDTSGHYLRDSAQEAGHHVVDKAIVKENRYAIRAQVSAWIASDDVQVVLITGGTGLTEGDQAPEALLPLFDREVEGFGEVFRMLSFEEIGTSTLQSRAVAGVANKTLIFAMPGSTKACRTAWENIIAPQLDARTRPCNFHPHLKK,soluble
9,MSQYIYELEMKVRDYECDLQGIVNNANYQHYLEHTRHEFLTSVGVSFAALHEQGVDPVVARINMAFKTPLKSGDEFVSKLYMKKEGIKYVFYQDIFRKSDQKVVVKSTVETVCVVNGRLSNSELFDNVFAPYLK,not soluble
10,MSQYNPTTADFEALLMQSFQTNDLNEGSVVKGRVIAIEKDMAIIDAGLKVEGRIPLKEFGAKGKDGSLQIGDEVEVYIERIENAMGEAVLSREKARREESWIRLEEKFNAGARVDGVIFSQVKGGFTVDLDGAVAFLPRSQVDIRPIRDVSPLMHNSQSFEILKMDRRRGNIVVSRRTVLEESRAEQRSEIVQNLEENQIVEGVVKNITDYGAFVDLGGIDGLLHVTDMAWRRVNHPSEILTIGQTIKVQIIRINQDTHRISLGMKQLESDPWESISARYPVGKKITGAVTNITDYGGFVEIEPGIEGLIHVSEMSWTKKNVHPGKILSTSQEVEVVILEIDPSKRRISLGLKQTFENPWVAFANKFPVNSQIEGEVKNKTEFGLFIGLEGDVDGMVHLSDLDWNRPGEQVIDTYNKGDIVKAVVLDVDIEKERISLGIKQLSSDKVGEAAASGELRKGAVVTCEVTAVNDNGIDVKLTDHNLETTIRRTDLARDRDEQRPERFSIGQRVDARITAFDKKTRKLSVSIKALEIAEEKEAVAQYGSTDSGASLGDILGAALKKQEQDLEHHHHHH,soluble
11,MSRCKRCLLPHSAPGAAVDSSGICAFCRSYVPNDKNLSDQLHQQRQLDLEKALADCRGKGPYDVLVCLSGGKDSLYLLYRLKVEYKLNVLAFTTDVNIPDIAWNNIHRTIQKLDIDHLVYRPSAQFYRKLFRYLLMNQEERGAVYTVSYVYAPLFEGDALQVAMEKGIPLVLAGYSPGQPEPERMEFEFSRKLITETDWTPPGLRQSGEFTEEELARFWNPKRFPADTRFPRYLAPFHAWDYDQEAMIRKVHDLELVKRRAHGNPIYSNYPINWLLMYSDLKHFGYNPYAPEFSALIRAGKASRAYWWFMTPIVNFIIRNKLLIGRNTVDQLQQLGLQEDDLKITRPRGAYDPEID,not soluble
12,MSRDGSVAPKERINIRYVPATGDTQEDVELPLSMMVVGDFTARADETPIEERTPINIDKDNFNDVLEGMSPNVKVNVENRLSDEEGAQIGVDLTFQNMKDFSPEAIAKSVPELNSLLELREALVALKGPLGNVPAFRKKIASVLQDEEARKKLLDELSIGNDQDAKEE,soluble
13,MSRDLPSLNALRAFEAAARLHSISLAAEELHVTHGAVSRQVRLLEDDLGVALFGKDGRGVKLTDSGVRLRDACGDAFERLRGVCAELRRQTAEAPFVLGVPGSLLARWFIPRLDQLNRALPDLRLQLSTSEGEFDPRRPGLDAMLWFAEPPWPADMQVFELAPERMGPVVSPRLAQETGLAQAPAARLLQEPLLHTASRPQAWPAWAASQGLAAEALRYGQGFEHLYYLLEAAVAGLGVAIAPEPLVRDDLAAGRLAAPWGFIETDARLALWVPARLHDPRAGRLAQWLREQLAG,not soluble
14,MSRDTERYPVKHANSLWQIYKTVPFWKVVKNFVVIQLARYTPFVSVKNWLYRTFLKMDVGEKTAFALMVMPDIMFPERISVGRNSIIGYNTTILAHEYLIEEYRLGDVIIGDEVMVGANTTILPGVTIGDRAIIAAGTVVHKNVPPGAFVGGNPMQVIKQLEHHHHHH,not soluble
15,MSRFQTLTPASLSREAFIEAFADIYEHSPWVAEKAYDLGIDDSLNDIEGLHQRMADILLSASREAQLALINAHPDLAGKAAIRGELTASSTSEQAGAGIHECSAEEFARFTELNDAYKARFGFPFIKAVKGSNRHQILAAFEERIQHSADEEFATALAEINKIALFRLQQL,not soluble
16,MSRGGKGGDGDTRGGGGENGNQNNKGGNDEGGNEIEVPSMEELDGLADKIADEFVSQGMKIYQTLDPETRPYPDEYREGLRSQVEELPEKFKEFYTPGPGEFTAKLDLIDELTRKLDTQAGDFNTGEISGHVHDAMDNMGEWEGALSISFRKGYLDPLYEGIIPNHGRVLALLHDNFQAMRDIYAEGRKSLKKIGEDGLSAMEQADDVDGAAVVTALTVLAAAFGLGFAGLAAVPGIATAAGVAGAAVAGGLAVASDQAPEPEEIPLAGSSAEDVLVNIYDALSKLEDDILTKEAELIDTILRGCDETLELVGDTTENSMLVPKMPDLVGTALDDYHQISEGLNQFD,not soluble
17,MSRIRSNNDNIIILTDEQRKTVGRIAGRSQNRNTSKKIADGPYFLPRYRIRDNAERSVGARFKSLPQKEQDEVVNEAFSNLREYLKKREPFYAKLRKANSKYSSKPKEREKSVDSNDEADRRNKGNKKTQKNASKNCQIEKSSNNSGILKKSGSGISVASKPKKSVAFAPGVYEDLSTDDDLEFLNSVIVNSDRPTSQCDNPARRMCGRPPTKHRDTEQSQEITGSKKQKIFPTPHEKPAWWSFRIPKKRAQ,soluble
18,MSRNLHHTEEIYQSSYLNSSLIEFMPNTILPGKETVFMSSKMEQIIEEIEDYIDGCKPSPISRNKILVNREQLEELLSELRTKTPEEVKRYQKIISNKEAILADAQAKADQIIAQAQIQTNELVSEHQIMQQAYAQANEVVQIATKQAQEILDSATNEANNLRMSAMAYTDSQLKSIEDILTGSIETSKARYDSLISSLQQFEDVVAANRAELFPPEENGDEAAGAESSDNEATSDTSDDDIEITNISDSDEDAK,not soluble
19,MSRRAGTPTAKKVTQLVNVEEHVEGFRQVREAHRRELIDDYVELISDLIREVGEARQVDMAARLGVSQPTVAKMLKRLATMGLIEMIPWRGVFLTAEGEKLAQESRERHQIVENFLLVLGVSPEIARRDAEGMEHHVSEETLDAFRLFTQKHGAK,soluble
20,MSRYNWNVPILEVLKEAVMVKKLNKIAVVGTPCVINAVYQMMATNNDLVEPFKKAIRLKISLFCFETFDYDKMLKKLKEVEVNPWDIKKMEIDKGKLIVSTIHGNVFNFKIDEMDEYVRKGCKVCRDFTGISSDISVGNVGTPEGYSTVLVRNKWGKGFFDRAVINGYVSVEGEASIDPVISLSKKKMERKDIEFLEHHHHHH,soluble
21,MSSASAHHKKDLLDQVNNPVFLQDLRQQMIKFAVLQLASLPHAEDVVQDALASAFQHLDSFTGRAAFKTWVFAILKNKIIDLIRQKSRLVSMSELFKDEESELSIDALFDASGHWHKYEAPQAWLSPEEMMEQQDFWIIFDACLNHLPAKYAQVFMLREVIELNSSEICEKLELTVSHFNVLMYRSRTRLRECLENKWLLQEDCSC,not soluble
22,MSSDFPTDPYSTAQQKWLYQDHLVLPTLEKLLKYNLKDKKVLDIGCGNGLNSTTFLQWGARKVVGFDNSQEMIENCKNLHKSSEQSSFHHLNVTDFQLDEKFHVATAVFVLQYVHDKEELRKAIRLIWERKLRNGWFRLWMEDL,not soluble
